# Measured values from US20150368311A1 (Sanofi, published 2015).
# Non-standard residues stand in square brackets, D forms with d. No end group written: not given here. Ala(4-thiazolyl) = N[C@@H](Cc1cscn1)C(=O)O; Nle = CCCC[C@H](N)C(=O)O
# B1: SEQ ID NO: 7 (peptide)
# peptide: [Ala(4-thiazolyl)]SQGTFTSDVSKQLESRRAQEFIEWLLATGPESGAPPPS-OH
# modifications: N-terminus assumed
# SMILES: CC[C@H](C)[C@H](NC(=O)[C@H](Cc1ccccc1)NC(=O)[C@H](CCC(=O)O)NC(=O)[C@H](CCC(N)=O)NC(=O)[C@H](C)NC(=O)[C@H](CCCNC(=N)N)NC(=O)[C@H](CCCNC(=N)N)NC(=O)[C@H](CO)NC(=O)[C@H](CCC(=O)O)NC(=O)[C@H](CC(C)C)NC(=O)[C@H](CCC(N)=O)NC(=O)[C@H](CCCCN)NC(=O)[C@H](CO)NC(=O)[C@@H](NC(=O)[C@H](CC(=O)O)NC(=O)[C@H](CO)NC(=O)[C@@H](NC(=O)[C@H](Cc1ccccc1)NC(=O)[C@@H](NC(=O)CNC(=O)[C@H](CCC(N)=O)NC(=O)[C@H](CO)NC(=O)[C@@H](N)Cc1cscn1)[C@@H](C)O)[C@@H](C)O)C(C)C)C(=O)N[C@@H](CCC(=O)O)C(=O)N[C@@H](Cc1c[nH]c2ccccc12)C(=O)N[C@@H](CC(C)C)C(=O)N[C@@H](CC(C)C)C(=O)N[C@@H](C)C(=O)N[C@H](C(=O)NCC(=O)N1CCC[C@H]1C(=O)N[C@@H](CCC(=O)O)C(=O)N[C@@H](CO)C(=O)NCC(=O)N[C@@H](C)C(=O)N1CCC[C@H]1C(=O)N1CCC[C@H]1C(=O)N1CCC[C@H]1C(=O)N[C@@H](CO)C(=O)O)[C@@H](C)O
# B2: SEQ ID NO: 6 (peptide)
# peptide: [Ala(4-thiazolyl)]SQGTFTSDYSKQLESRRAQEFIEWLLATGPESGAPPPS-OH
# modifications: N-terminus assumed
# SMILES: CC[C@H](C)[C@H](NC(=O)[C@H](Cc1ccccc1)NC(=O)[C@H](CCC(=O)O)NC(=O)[C@H](CCC(N)=O)NC(=O)[C@H](C)NC(=O)[C@H](CCCNC(=N)N)NC(=O)[C@H](CCCNC(=N)N)NC(=O)[C@H](CO)NC(=O)[C@H](CCC(=O)O)NC(=O)[C@H](CC(C)C)NC(=O)[C@H](CCC(N)=O)NC(=O)[C@H](CCCCN)NC(=O)[C@H](CO)NC(=O)[C@H](Cc1ccc(O)cc1)NC(=O)[C@H](CC(=O)O)NC(=O)[C@H](CO)NC(=O)[C@@H](NC(=O)[C@H](Cc1ccccc1)NC(=O)[C@@H](NC(=O)CNC(=O)[C@H](CCC(N)=O)NC(=O)[C@H](CO)NC(=O)[C@@H](N)Cc1cscn1)[C@@H](C)O)[C@@H](C)O)C(=O)N[C@@H](CCC(=O)O)C(=O)N[C@@H](Cc1c[nH]c2ccccc12)C(=O)N[C@@H](CC(C)C)C(=O)N[C@@H](CC(C)C)C(=O)N[C@@H](C)C(=O)N[C@H](C(=O)NCC(=O)N1CCC[C@H]1C(=O)N[C@@H](CCC(=O)O)C(=O)N[C@@H](CO)C(=O)NCC(=O)N[C@@H](C)C(=O)N1CCC[C@H]1C(=O)N1CCC[C@H]1C(=O)N1CCC[C@H]1C(=O)N[C@@H](CO)C(=O)O)[C@@H](C)O
# B3: SEQ ID NO: 8 (peptide)
# peptide: [Ala(4-thiazolyl)]SQGTFTSDISKQLESRRAQEFIEWLLATGPESGAPPPS-OH
# modifications: N-terminus assumed
# SMILES: CC[C@H](C)[C@H](NC(=O)[C@H](Cc1ccccc1)NC(=O)[C@H](CCC(=O)O)NC(=O)[C@H](CCC(N)=O)NC(=O)[C@H](C)NC(=O)[C@H](CCCNC(=N)N)NC(=O)[C@H](CCCNC(=N)N)NC(=O)[C@H](CO)NC(=O)[C@H](CCC(=O)O)NC(=O)[C@H](CC(C)C)NC(=O)[C@H](CCC(N)=O)NC(=O)[C@H](CCCCN)NC(=O)[C@H](CO)NC(=O)[C@@H](NC(=O)[C@H](CC(=O)O)NC(=O)[C@H](CO)NC(=O)[C@@H](NC(=O)[C@H](Cc1ccccc1)NC(=O)[C@@H](NC(=O)CNC(=O)[C@H](CCC(N)=O)NC(=O)[C@H](CO)NC(=O)[C@@H](N)Cc1cscn1)[C@@H](C)O)[C@@H](C)O)[C@@H](C)CC)C(=O)N[C@@H](CCC(=O)O)C(=O)N[C@@H](Cc1c[nH]c2ccccc12)C(=O)N[C@@H](CC(C)C)C(=O)N[C@@H](CC(C)C)C(=O)N[C@@H](C)C(=O)N[C@H](C(=O)NCC(=O)N1CCC[C@H]1C(=O)N[C@@H](CCC(=O)O)C(=O)N[C@@H](CO)C(=O)NCC(=O)N[C@@H](C)C(=O)N1CCC[C@H]1C(=O)N1CCC[C@H]1C(=O)N1CCC[C@H]1C(=O)N[C@@H](CO)C(=O)O)[C@@H](C)O
# B4: SEQ ID NO: 5 (peptide)
# peptide: [Ala(4-thiazolyl)]SQGTFTSDYSKQLESRRAQEFIEWLLAGGPESGAPPPS-OH
# modifications: N-terminus assumed
# SMILES: CC[C@H](C)[C@H](NC(=O)[C@H](Cc1ccccc1)NC(=O)[C@H](CCC(=O)O)NC(=O)[C@H](CCC(N)=O)NC(=O)[C@H](C)NC(=O)[C@H](CCCNC(=N)N)NC(=O)[C@H](CCCNC(=N)N)NC(=O)[C@H](CO)NC(=O)[C@H](CCC(=O)O)NC(=O)[C@H](CC(C)C)NC(=O)[C@H](CCC(N)=O)NC(=O)[C@H](CCCCN)NC(=O)[C@H](CO)NC(=O)[C@H](Cc1ccc(O)cc1)NC(=O)[C@H](CC(=O)O)NC(=O)[C@H](CO)NC(=O)[C@@H](NC(=O)[C@H](Cc1ccccc1)NC(=O)[C@@H](NC(=O)CNC(=O)[C@H](CCC(N)=O)NC(=O)[C@H](CO)NC(=O)[C@@H](N)Cc1cscn1)[C@@H](C)O)[C@@H](C)O)C(=O)N[C@@H](CCC(=O)O)C(=O)N[C@@H](Cc1c[nH]c2ccccc12)C(=O)N[C@@H](CC(C)C)C(=O)N[C@@H](CC(C)C)C(=O)N[C@@H](C)C(=O)NCC(=O)NCC(=O)N1CCC[C@H]1C(=O)N[C@@H](CCC(=O)O)C(=O)N[C@@H](CO)C(=O)NCC(=O)N[C@@H](C)C(=O)N1CCC[C@H]1C(=O)N1CCC[C@H]1C(=O)N1CCC[C@H]1C(=O)N[C@@H](CO)C(=O)O
# B5: SEQ ID NO: 36 (peptide)
# peptide: HSQGTFTSDLSKQ[Nle]ESRRAQEFIEWLLATGPESGAPPPS-OH
# modifications: N-terminus assumed
# SMILES: CCCC[C@H](NC(=O)[C@H](CCC(N)=O)NC(=O)[C@H](CCCCN)NC(=O)[C@H](CO)NC(=O)[C@H](CC(C)C)NC(=O)[C@H](CC(=O)O)NC(=O)[C@H](CO)NC(=O)[C@@H](NC(=O)[C@H](Cc1ccccc1)NC(=O)[C@@H](NC(=O)CNC(=O)[C@H](CCC(N)=O)NC(=O)[C@H](CO)NC(=O)[C@@H](N)Cc1c[nH]cn1)[C@@H](C)O)[C@@H](C)O)C(=O)N[C@@H](CCC(=O)O)C(=O)N[C@@H](CO)C(=O)N[C@@H](CCCNC(=N)N)C(=O)N[C@@H](CCCNC(=N)N)C(=O)N[C@@H](C)C(=O)N[C@@H](CCC(N)=O)C(=O)N[C@@H](CCC(=O)O)C(=O)N[C@@H](Cc1ccccc1)C(=O)N[C@H](C(=O)N[C@@H](CCC(=O)O)C(=O)N[C@@H](Cc1c[nH]c2ccccc12)C(=O)N[C@@H](CC(C)C)C(=O)N[C@@H](CC(C)C)C(=O)N[C@@H](C)C(=O)N[C@H](C(=O)NCC(=O)N1CCC[C@H]1C(=O)N[C@@H](CCC(=O)O)C(=O)N[C@@H](CO)C(=O)NCC(=O)N[C@@H](C)C(=O)N1CCC[C@H]1C(=O)N1CCC[C@H]1C(=O)N1CCC[C@H]1C(=O)N[C@@H](CO)C(=O)O)[C@@H](C)O)[C@@H](C)CC
# Biological target: T1, human GLP-1 receptor (human, UniProt P43220 24-463)
# Assay: cell-based or functional assay
row,Binder,"EC50 hGLP-1 R [pM], cAMP formation [pM]"
1,B1,4190
2,B2,9300
3,B3,5800
4,B4,2190

# Biological target: T2, human glucagon receptor (human, UniProt P47871 26-477)
# T2 sequence (P47871 26-477): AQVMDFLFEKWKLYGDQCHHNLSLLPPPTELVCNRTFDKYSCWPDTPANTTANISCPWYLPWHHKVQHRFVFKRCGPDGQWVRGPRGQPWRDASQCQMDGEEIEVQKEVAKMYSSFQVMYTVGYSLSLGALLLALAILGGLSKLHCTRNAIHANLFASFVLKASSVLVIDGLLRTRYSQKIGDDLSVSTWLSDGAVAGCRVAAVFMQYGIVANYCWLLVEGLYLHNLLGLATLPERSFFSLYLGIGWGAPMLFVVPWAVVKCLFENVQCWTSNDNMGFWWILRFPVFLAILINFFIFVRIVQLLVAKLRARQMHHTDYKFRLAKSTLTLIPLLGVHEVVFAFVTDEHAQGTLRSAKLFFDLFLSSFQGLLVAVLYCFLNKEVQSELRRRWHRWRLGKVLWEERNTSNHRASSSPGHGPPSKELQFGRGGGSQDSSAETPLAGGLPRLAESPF
# Assay: cell-based or functional assay
row,Binder,"EC50 hGLUC R [pM], cAMP formation [pM]"
1,B1,2.4
2,B2,0.5
3,B3,2.2
4,B4,0.6

# Biological target: T1, human GLP-1 receptor
# Assay: cell-based or functional assay
# Remark: another data set of the same source
row,Binder,"EC50 hGLP-1R, cAMP formation [nM]"
1,B1,4.19
2,B2,9.3
3,B5,0.358
4,B3,5.8
5,B4,2.19

# Biological target: T2, human glucagon receptor
# Assay: cell-based or functional assay
# Remark: another data set of the same source
row,Binder,"EC50 hGlucagon-R, cAMP formation [nM]"
1,B1,0.0024
2,B2,0.0005
3,B5,0.0014
4,B3,0.0022
5,B4,0.0006
